In article PMC11472053, “Structural basis of DNA recognition by BEN domain proteins reveals a role for oligomerization in unmethylated DNA selection by BANP” (Nucleic Acids Research, 2024):
Where a chain is given by its changes, count along the chain named.

Key:
BANP ΔCC = biological target: T1, BANP ΔCC (human, UniProt Q8N9N5 90-519); experiment: ITC; ITC: 20 mM Tris pH 7.5, 200 mM NaCl, 2 mM beta-mercaptoethanol, 20 C; EMSA: 20 mM Tris pH 7.0, 200 mM NaCl, 2 mM DTT, 4 C, 1.2% agarose in TAE; details: protein: recombinant; tags: His-SUMO or His-MBP, cleaved; blunt, self-complementary
T1 sequence: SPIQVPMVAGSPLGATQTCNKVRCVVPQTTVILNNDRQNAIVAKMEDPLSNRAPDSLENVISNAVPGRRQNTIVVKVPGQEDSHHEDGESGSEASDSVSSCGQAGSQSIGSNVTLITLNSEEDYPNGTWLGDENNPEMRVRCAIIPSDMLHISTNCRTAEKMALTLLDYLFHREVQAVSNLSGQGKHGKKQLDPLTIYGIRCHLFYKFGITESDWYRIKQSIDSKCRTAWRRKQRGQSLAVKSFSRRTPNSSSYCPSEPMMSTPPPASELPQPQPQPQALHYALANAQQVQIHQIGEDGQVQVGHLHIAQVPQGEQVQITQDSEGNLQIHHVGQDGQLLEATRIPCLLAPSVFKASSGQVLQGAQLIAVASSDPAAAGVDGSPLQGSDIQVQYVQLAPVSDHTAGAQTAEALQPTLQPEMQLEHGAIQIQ

BANP BEN R316A = biological target: T2, BANP BEN R316A (human, UniProt Q8N9N5 205-325, R316A); experiment: as above; details: protein: recombinant; tags: His-SUMO or His-MBP, cleaved; chain copies: 2; blunt, self-complementary
T2 sequence: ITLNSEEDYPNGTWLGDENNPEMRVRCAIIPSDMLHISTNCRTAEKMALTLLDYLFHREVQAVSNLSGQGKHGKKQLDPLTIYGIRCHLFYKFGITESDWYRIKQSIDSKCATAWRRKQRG

BANP CC-BEN (ΔDBD) = biological target: T3, BANP CC-BEN (ΔDBD) (human, UniProt Q8N9N5 1-360); experiment: as above; details: protein: recombinant; tags: His-SUMO or His-MBP, cleaved; blunt, self-complementary
T3 sequence: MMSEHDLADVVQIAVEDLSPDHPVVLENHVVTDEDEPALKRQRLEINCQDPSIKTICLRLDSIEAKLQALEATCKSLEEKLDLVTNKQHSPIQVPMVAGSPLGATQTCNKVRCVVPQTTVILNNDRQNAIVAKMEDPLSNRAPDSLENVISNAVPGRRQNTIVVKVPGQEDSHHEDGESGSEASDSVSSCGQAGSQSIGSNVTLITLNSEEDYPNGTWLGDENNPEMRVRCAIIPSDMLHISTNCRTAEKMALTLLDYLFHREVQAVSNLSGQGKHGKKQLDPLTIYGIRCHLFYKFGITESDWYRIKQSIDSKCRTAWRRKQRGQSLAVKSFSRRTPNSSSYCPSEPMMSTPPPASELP

GST-BANP BEN = biological target: T4, GST-BANP BEN (human, UniProt Q8N9N5 205-325); experiment: as above; details: protein: recombinant; tags: N-terminal GST fusion; chain copies: 2; blunt, self-complementary
T4 sequence: T2 sequence with A112R

BANP DBD = biological target: T5, BANP DBD (human, UniProt Q8N9N5 361-519); experiment: EMSA; ITC: 20 mM Tris pH 7.5, 200 mM NaCl, 2 mM beta-mercaptoethanol, 20 C; EMSA: 20 mM Tris pH 7.0, 200 mM NaCl, 2 mM DTT, 4 C, 1.2% agarose in TAE; details: protein: recombinant; tags: His-SUMO or His-MBP, cleaved; blunt, self-complementary
T5 sequence: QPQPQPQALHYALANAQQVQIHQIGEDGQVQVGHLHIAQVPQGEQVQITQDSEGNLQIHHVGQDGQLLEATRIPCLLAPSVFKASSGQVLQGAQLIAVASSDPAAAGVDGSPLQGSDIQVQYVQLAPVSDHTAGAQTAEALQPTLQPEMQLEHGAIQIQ

B1: 12-CGCG (dsDNA)
DNA 1: ATCTCGCGAGAT
DNA 2: ATCTCGCGAGAT
BANP ΔCC
  Kd: 3.4 ± 0.5 µM
BANP BEN R316A
  Kd: 16.8 ± 1.6 µM
BANP CC-BEN (ΔDBD)
  Kd: 2900 ± 700 nM
GST-BANP BEN
  Kd: 2300 ± 400 nM
BANP DBD
  binding result: no binding
